Positions count from the first letter of the chain named.
B1: SD1072 (VHH)
VHH: EVQLVESGGGLVEAGGSLRLSCAVSGRTFSMYATGWFRQAPGKEREFVAAINSSGDKTTYADSVEGRFTISRDIGTVYLQMNNLNPEDTAVYYCAAARTLAVVTIPGGYEYWGQGTQVTVSS
B2: SD1074 (VHH)
VHH: EVQLVESGGGLVQAGGSLRLSCAASRNFDAIGAMGWYRQAPGKQRELVAEITSDGSTNYTDSVKGRFTISRDNALRTMYLQMNALEPEDTAVYYCKADISIYGLTNFPYWGQGTQVTVSS
B3: SD1071 (VHH)
VHH: EVQLVESGGGLVQTGESLRLSCAFSGFTYSTYWMYWVRQGPEKGLKWVSSTNAAGTVTYYAANVRDRFTASKDNAKNTLYLQMNRLKPEDTGLYYCASKDGLIVAATLDDYDYRGQGTQVTVSS
B4: SD1018 (VHH)
VHH: EVQLVESGGGLVQAGGSLRLSCAASGQTYHMGWFRQTPGNERESVAAVTWSGAVTRYADSVKGRFTISRDNAKNTVYLQMNSLVPEDTAIYYCAATRSMAPIIQLSPGSYDYWGPGTQVTVSS
B5: SD1027 (VHH)
VHH: EVQLVESGGGMVQAGGSLRLSCAASGGTFSLYHMGWFRQAPGEEREFVAAISGSGGNTYYADSVKGRFTISRDNNKNTVYLQMSSLEPEDTAVYFCAAMKWPGILRDANAYDYWGQGTQVTVSS
B6: SD1035 (VHH)
VHH: EVQLVESGGGLVQAGGTLRLSCAASGSAVSISRMAWYRQAPGKQRELVADIFSGGGTNYADSVKGRFTISRDNAKNTVDLQMNSLKPEDTAVYYCSARSAVAAIHWDQYDYWGQGTQVTVSS
B7: SD1047 (VHH)
VHH: EVQLVESGGGLVQAGGSLRISCAASGRTYAMAWFRQAPGKEREFVAHINALGTRTYYSDSVKDRFTISRDNAKNTEYLQMNSLKPEDTAVYYCVAGGQWRAAPVAAAESYDFWGQGTQVTVSS
B8: SD3089 (VHH)
VHH: EVQLVESGGGVVQPGGSLRLSCAASISIFDIYAMHWYRQAPGKQRELVSVSFRDGSTYYADSVKGRFTISRDNSKNTLYLQMNSLRAEDTAVYYCHVSLYRDPLGVAGGLGVYWGQGTLVTVSS
B9: SD3031 (VHH)
VHH: EVQLVESGGGLVQPGGSLRLSCAVSISIFDIYAMDWYRQAPGKQRDLVATSFRDGSTNYADSVKGRFTISRDNAKNTLYLQMNSLKPEDTAVYLCHVSLYRDPLGVAGGVGVYWGKGALVTVSS
B10: SD3080 (VHH)
VHH: B8 VHH with H35D, S49A, A87P
B11: SD3078 (VHH)
VHH: B8 VHH with H35D
B12: SD3096 (VHH)
VHH: EVQLLESGGGLVQPGGSLRLSCAASGRTYAMGWFRQAPGKEREFVAHINALGTRTYYADSVKGRFTISRDNSKNTVYLQMNSLRPEDTAVYYCTAQGQWRAAPVAVAAEYEFWGQGTLVTVSS
B13: SD3098 (VHH)
VHH: B12 VHH with H47A, V76L
B14: SD3067 (VHH)
VHH: EVQLVESGGGLVQPGGSLRLSCAASGRTLSIYSMGWFRQAPGKEREFVATIGWNSGRTFYPDSLKGRFTISRDNSKNTLYLQMNSLRAEDTAVYYCAAAKGPLRLSSQADYWGQGTLVTVSS
B15: SD3068 (VHH)
VHH: B14 VHH with A49S
B16: SD3014 (VHH)
VHH: B8 VHH with H35D, S49A, Y94L, L110M, Q116K, T118A
B17: SD3033 (VHH)
VHH: B9 VHH with V110F
B18: SD3032 (VHH)
VHH: B9 VHH with V110A
B19: SD3017 (VHH)
VHH: B8 VHH with S49A, V50T, Y94L, L110M, Q116K, T118A
B20: SD3019 (VHH)
VHH: B8 VHH with Y94L, L110M, Q116K, T118A
B21: SD3018 (VHH)
VHH: B8 VHH with S49A, Y94L, L110M, Q116K, T118A
B22: SD3020 (VHH)
VHH: B8 VHH with S49A, A87P, Y94L, L110M, Q116K, T118A
B23: SD3015 (VHH)
VHH: B8 VHH with H35D, Y94L, L110M, Q116K, T118A
B24: SD3016 (VHH)
VHH: B8 VHH with H35D, S49A, A87P, Y94L, L110M, Q116K, T118A

Molecular target: HA of H1N1 A/New Caledonia/20/1999 (influenza A virus)
Experiment: cell-based or functional assay

Binder | VNA titer
B1 | 78.5 nM
B2 | 113 nM
B3 | 1260 nM
B4 | > 1000 nM
B5 | 862 nM
B6 | 74.8 nM

Molecular target: HA of H3N2 A/Brisbane/10/2007 (influenza A virus)
Experiment: cell-based or functional assay

Binder | VNA titer
B1 | > 1000 nM
B2 | > 1000 nM
B3 | > 1000 nM
B4 | > 1000 nM
B5 | > 1000 nM

Molecular target: HA of H5N1 A/Vietnam/1194/04 (influenza A virus)
Experiment: cell-based or functional assay

Binder | VNA titer
B1 | 444 nM
B2 | 638 nM
B3 | 111 nM
B4 | 615 nM
B5 | > 1000 nM
B7 | > 1000 nM

Molecular target: HA of H7N3 A/NIBRG/60 (A/mallard/NL/12/00) (influenza A virus)
Experiment: cell-based or functional assay

Binder | VNA titer
B1 | > 1000 nM
B2 | > 1000 nM
B3 | > 1000 nM
B4 | > 1000 nM
B5 | > 1000 nM
B7 | 510 nM
B6 | > 1000 nM

Molecular target: hemagglutinin (HA) of influenza A/Brisbane/10/07 (H3N2) (influenza A virus A/Brisbane/10/07 (H3N2))
Experiment: cell-based or functional assay

Binder | VNA IC50
B8 | 1190 nM
B9 | > 1000 nM
B10 | 632 nM
B11 | 632 nM
B12 | 26 nM
B13 | 4 nM
B14 | 3 nM
B15 | 4 nM

Molecular target: hemagglutinin (HA) of influenza A/New Caledonia/20/99 (H1N1) (influenza A virus A/New Caledonia/20/99 (H1N1))
Experiment: cell-based or functional assay

Binder | VNA IC50
B16 | 3 nM
B17 | 51 nM
B18 | > 500 nM
B19 | 4 nM
B20 | 4 nM
B21 | 6 nM
B22 | 4 nM
B8 | 3 nM
B9 | 37 nM
B10 | 5 nM
B23 | 3 nM
B11 | 8 nM
B24 | 3 nM

Molecular target: hemagglutinin (HA) of influenza A/New York/107/03 (PR8) (influenza A virus A/New York/107/03 (PR8))
Experiment: cell-based or functional assay

Binder | VNA IC50
B12 | 5 nM
B13 | 16 nM
B14 | 16 nM
B15 | 26 nM

Molecular target: hemagglutinin (HA) of influenza A/Vietnam/1194/04 (H5N1) (influenza A virus A/Vietnam/1194/04 (H5N1))
Experiment: cell-based or functional assay

Binder | VNA IC50
B16 | 11 nM
B17 | 316 nM
B18 | > 500 nM
B19 | 11 nM
B20 | 8 nM
B21 | 8 nM
B22 | 15 nM
B8 | 20 nM
B9 | 51 nM
B10 | 16 nM
B23 | 6 nM
B11 | 20 nM
B24 | 8 nM

Source: US20190359693A1
